This test concerns the target T1, rabbit-lung angiotensin converting enzyme (ACE) (Sigma) (rabbit, UniProt P12822 34-1310, limits assumed).
T1 sequence (looked up): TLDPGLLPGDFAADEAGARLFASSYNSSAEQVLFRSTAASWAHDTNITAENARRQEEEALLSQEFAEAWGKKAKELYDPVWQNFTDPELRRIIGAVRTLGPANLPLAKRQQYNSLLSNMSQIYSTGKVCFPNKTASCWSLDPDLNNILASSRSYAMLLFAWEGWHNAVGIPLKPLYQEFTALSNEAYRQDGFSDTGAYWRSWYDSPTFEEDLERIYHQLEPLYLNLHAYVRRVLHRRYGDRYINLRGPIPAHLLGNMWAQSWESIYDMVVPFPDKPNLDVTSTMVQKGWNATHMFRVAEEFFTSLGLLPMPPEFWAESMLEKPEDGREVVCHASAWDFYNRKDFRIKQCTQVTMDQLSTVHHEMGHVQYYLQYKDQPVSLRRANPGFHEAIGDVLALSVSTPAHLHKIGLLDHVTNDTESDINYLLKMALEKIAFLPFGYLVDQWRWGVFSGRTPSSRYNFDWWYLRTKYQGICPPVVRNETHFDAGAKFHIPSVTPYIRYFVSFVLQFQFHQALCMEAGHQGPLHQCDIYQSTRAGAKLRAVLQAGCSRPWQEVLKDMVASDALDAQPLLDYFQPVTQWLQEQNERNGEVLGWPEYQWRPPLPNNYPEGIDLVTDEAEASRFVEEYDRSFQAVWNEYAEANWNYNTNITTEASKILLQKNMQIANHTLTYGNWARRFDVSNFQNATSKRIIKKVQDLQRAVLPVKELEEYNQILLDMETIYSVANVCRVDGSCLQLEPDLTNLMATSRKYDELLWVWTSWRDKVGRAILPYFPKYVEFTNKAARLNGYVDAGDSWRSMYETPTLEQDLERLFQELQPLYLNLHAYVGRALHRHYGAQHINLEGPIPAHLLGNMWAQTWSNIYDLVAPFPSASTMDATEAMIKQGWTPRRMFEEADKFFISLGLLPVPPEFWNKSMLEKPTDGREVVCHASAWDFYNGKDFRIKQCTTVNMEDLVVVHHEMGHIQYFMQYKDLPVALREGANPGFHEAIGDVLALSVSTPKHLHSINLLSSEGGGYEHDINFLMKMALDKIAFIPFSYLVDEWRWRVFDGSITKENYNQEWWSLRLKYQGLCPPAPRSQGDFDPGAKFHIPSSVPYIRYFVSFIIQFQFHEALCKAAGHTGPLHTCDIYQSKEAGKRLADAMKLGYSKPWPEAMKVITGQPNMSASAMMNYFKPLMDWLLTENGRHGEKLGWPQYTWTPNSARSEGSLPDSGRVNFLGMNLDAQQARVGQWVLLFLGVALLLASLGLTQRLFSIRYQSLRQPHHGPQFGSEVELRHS
As to the kind of experiment: cell-based or functional assay.

Regarding YGCGCDPL [SEQ ID NO: 3 peptide YGCGCDPL], the “ACE inhibitory activity, IC50” value amounted to 1.85 µM.

Consider YYCPADCPS [SEQ ID NO: 2 peptide YYCPADCPS], for which the “ACE inhibitory activity, IC50” value came to 1.64 µM. With HCGCNTH [SEQ ID NO: 5 peptide HCGCNTH] the figure was 2.59 µM. As for RDGGYCC [SEQ ID NO: 1 peptide RDGGYCC], the figure is 0.84 µM; as for CCGNAVPQ [SEQ ID NO: 7 peptide CCGNAVPQ], 39.6 µM. With WAAGYCC [SEQ ID NO: 6 peptide WAAGYCC] the figure was 6.88 µM; with LEEFCC [SEQ ID NO: 4 peptide LEEFCC], 2.58 µM.

Source of the values: patent publication EP3170507A1 (Consejo Superior de Investigaciones Cientificas (CSIC), dated 2017).
